Source: US20240116985A1 (published 2024)
Starred links: 1 amine or outer side, 2 acyl side, 3 side chain; linkers in the order of their positions; H or OH if unused. Positions of bridges follow the written chain, without caps; N, C: chain ends. Non-standard residues stand in square brackets, D forms with d. Primed or numbered codes have the meaning given here. *: point of attachment. PyrS2(3) = (S)-3-amino-1-((pent-4-en-1-yloxy)carbonyl)pyrrolidine-3-carboxylic acid, stapling residue, C=CCCCOC(=O)N1CC[C@@](N[*:1])(C(=O)[*:2])C1; PyrS2″ = (S)-3-amino-1-((pent-4-en-1-yloxy)carbonyl)pyrrolidine-3-carboxylic acid (stapling residue), C=CCCCOC(=O)N1CC[C@@](N[*:1])(C(=O)[*:2])C1; B5(23) = 2-amino-2-(pent-4-en-1-yl)hept-6-enoic acid (2,2-bis(4-pentenyl)glycine), stitching residue, C=CCCCC(CCCC=C)(N[*:1])C(=O)[*:2]; B5(4) = 2,2-bis(4-pentenyl)glycine = 2-amino-2-(pent-4-en-1-yl)hept-6-enoic acid (stitching residue), C=CCCCC(CCCC=C)(N[*:1])C(=O)[*:2]; B5(5) = 2,2-bis(4-pentenyl)glycine, 2-amino-2-(pent-4-en-1-yl)hept-6-enoic acid (stitching residue), C=CCCCC(CCCC=C)(N[*:1])C(=O)[*:2]; TfeGA = (S)-2-amino-3-((carboxymethyl)(2,2,2-trifluoroethyl)amino)propanoic acid, O=C([C@H](CN(CC(=O)[*:3])CC(F)(F)F)N[*:1])[*:2]; B5″ = 2,2-bis(4-pentenyl)glycine, stitching residue, C=CCCCC(CCCC=C)(N[*:1])C(=O)[*:2]; Phe(2-Cl) = N[C@@H](Cc1ccccc1Cl)C(=O)O; Bta = N[C@@H](Cc1csc2ccccc12)C(=O)O; αAllylPro = C=CC[C@@]1(C(=O)O)CCCN1; tBuAla = CC(C)(C)C[C@H](N)C(=O)O; 3Thi = N[C@@H](Cc1ccsc1)C(=O)O; S8 = C=CCCCCCC[C@](C)(N)C(=O)O; Alaol = C[C@@H](CO)N*

How the values were obtained:
[1] = biological target: T1, full-length beta-Catenin (Uniprot ID P35222) (Homo sapiens (Human), UniProt P35222 2-781); experiment: fluorescence polarization competition; 10 nM full-length beta-catenin + 10 nM 5FAM-TCF4(10-53) probe, peptide titrated
T1 construct: also called bCat; B-Catenin
T1 sequence: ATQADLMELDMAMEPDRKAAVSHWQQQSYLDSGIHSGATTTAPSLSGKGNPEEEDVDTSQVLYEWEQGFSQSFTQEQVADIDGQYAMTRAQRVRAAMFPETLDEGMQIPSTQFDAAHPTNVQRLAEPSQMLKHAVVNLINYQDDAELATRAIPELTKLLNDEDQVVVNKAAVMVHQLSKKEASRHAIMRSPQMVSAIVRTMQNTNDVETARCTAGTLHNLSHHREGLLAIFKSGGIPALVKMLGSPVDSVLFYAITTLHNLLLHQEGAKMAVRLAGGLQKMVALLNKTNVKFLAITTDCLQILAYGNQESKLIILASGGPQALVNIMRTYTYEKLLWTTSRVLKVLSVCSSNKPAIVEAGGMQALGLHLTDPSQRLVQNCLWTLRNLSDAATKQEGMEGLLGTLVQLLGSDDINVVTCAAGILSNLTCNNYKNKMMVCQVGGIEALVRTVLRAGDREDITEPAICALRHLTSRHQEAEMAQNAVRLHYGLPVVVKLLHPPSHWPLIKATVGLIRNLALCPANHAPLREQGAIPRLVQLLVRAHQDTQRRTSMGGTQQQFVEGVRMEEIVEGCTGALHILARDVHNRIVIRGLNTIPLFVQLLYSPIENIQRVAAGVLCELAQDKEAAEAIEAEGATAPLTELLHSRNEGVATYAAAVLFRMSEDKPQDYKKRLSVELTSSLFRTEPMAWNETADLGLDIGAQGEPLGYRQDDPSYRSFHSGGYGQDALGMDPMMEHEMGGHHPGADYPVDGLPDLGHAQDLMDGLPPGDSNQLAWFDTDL
Experimental: The plate was incubated protected from light for 60 minutes at 20° C. prior to read. Reads were performed on a CLARIOstar plate reader (BMG Labtech) in duplicate, and data were fitted to a 1:1 binding model with hill slope using an in-house script. All provided concentrations are final concentrations.

[2] = biological target: T2, B-cat-Halo (beta-catenin HaloTag NanoBRET construct expressed in HEK293 cells) (UniProt P35222 1-781, HaloTag labelled with HaloTag NanoBRET 618 Ligand); experiment: cell-based or functional assay
T2 sequence (looked up): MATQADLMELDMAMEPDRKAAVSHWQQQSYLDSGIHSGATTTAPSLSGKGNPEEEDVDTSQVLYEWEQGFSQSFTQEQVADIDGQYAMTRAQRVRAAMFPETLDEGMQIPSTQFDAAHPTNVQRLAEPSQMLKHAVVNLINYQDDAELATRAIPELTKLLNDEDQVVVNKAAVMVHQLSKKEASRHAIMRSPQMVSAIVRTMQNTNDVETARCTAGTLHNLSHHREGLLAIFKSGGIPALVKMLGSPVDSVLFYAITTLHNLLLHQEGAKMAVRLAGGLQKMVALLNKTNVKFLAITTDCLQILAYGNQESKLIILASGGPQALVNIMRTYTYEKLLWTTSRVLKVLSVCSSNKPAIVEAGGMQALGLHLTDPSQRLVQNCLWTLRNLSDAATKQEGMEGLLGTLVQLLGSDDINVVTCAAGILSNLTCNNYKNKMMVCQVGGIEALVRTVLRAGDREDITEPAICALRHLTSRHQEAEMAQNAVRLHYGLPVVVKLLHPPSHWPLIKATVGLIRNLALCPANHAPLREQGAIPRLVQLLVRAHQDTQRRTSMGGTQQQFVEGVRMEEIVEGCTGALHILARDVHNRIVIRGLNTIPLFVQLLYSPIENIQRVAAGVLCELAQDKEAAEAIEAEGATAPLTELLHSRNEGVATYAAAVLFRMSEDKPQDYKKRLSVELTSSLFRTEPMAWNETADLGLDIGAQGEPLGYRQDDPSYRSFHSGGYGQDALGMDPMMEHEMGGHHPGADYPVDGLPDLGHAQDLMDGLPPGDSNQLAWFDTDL

[3] = biological target: T3, beta-catenin (in DLD1 TCF/LEF luciferase reporter cells) (UniProt P35222 1-781); experiment: cell-based or functional assay
T3 sequence (looked up): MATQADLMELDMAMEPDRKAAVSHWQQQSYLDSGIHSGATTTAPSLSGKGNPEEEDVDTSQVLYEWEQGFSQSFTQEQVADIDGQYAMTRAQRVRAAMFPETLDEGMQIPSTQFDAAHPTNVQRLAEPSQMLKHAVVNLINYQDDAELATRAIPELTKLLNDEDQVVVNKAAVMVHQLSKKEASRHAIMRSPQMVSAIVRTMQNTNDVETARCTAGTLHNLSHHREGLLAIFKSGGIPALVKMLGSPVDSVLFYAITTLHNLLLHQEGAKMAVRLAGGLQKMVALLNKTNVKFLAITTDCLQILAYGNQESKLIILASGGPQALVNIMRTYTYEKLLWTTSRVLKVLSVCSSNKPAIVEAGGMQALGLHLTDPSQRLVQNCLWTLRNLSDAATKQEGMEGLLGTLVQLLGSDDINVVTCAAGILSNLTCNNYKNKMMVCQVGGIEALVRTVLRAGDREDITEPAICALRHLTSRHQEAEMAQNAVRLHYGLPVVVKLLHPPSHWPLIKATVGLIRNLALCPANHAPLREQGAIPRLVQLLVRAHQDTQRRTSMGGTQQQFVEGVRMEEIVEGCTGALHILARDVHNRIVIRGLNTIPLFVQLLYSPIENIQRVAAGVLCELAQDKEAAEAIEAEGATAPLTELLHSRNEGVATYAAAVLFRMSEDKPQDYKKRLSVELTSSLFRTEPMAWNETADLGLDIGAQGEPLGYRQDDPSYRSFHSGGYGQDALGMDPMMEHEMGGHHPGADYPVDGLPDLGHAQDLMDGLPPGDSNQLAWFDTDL

[4] = biological target: T4, B-cat-Halo (NanoBRET construct expressed in HEK293 cells) (UniProt P35222 1-781, HaloTag NanoBRET 618 Ligand bound in the assay); experiment: cell-based or functional assay
T4 sequence (looked up): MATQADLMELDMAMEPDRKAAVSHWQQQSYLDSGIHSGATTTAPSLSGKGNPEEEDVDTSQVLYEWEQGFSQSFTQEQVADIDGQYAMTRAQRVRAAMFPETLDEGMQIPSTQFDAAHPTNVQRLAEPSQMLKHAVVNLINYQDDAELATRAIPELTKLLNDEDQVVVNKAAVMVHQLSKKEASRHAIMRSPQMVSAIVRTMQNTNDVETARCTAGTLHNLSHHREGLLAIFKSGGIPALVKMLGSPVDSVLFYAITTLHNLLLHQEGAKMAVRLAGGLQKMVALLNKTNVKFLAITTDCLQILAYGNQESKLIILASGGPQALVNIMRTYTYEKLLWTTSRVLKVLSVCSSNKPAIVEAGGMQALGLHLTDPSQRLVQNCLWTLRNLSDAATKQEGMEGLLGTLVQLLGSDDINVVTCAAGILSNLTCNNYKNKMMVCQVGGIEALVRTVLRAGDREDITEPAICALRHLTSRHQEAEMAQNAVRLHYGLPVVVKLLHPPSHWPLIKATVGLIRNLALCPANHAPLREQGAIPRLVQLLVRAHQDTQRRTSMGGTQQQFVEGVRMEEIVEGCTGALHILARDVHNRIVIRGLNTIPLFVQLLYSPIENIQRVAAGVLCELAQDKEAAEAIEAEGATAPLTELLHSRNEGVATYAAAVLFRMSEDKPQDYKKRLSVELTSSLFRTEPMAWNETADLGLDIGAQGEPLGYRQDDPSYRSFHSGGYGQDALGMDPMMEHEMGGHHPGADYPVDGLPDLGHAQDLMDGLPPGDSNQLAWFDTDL

[5] = biological target: T5, beta-catenin in DLD1 TCF/LEF luciferase reporter cells (Homo sapiens (Human), UniProt P35222 2-781); experiment: cell-based or functional assay
T5 sequence: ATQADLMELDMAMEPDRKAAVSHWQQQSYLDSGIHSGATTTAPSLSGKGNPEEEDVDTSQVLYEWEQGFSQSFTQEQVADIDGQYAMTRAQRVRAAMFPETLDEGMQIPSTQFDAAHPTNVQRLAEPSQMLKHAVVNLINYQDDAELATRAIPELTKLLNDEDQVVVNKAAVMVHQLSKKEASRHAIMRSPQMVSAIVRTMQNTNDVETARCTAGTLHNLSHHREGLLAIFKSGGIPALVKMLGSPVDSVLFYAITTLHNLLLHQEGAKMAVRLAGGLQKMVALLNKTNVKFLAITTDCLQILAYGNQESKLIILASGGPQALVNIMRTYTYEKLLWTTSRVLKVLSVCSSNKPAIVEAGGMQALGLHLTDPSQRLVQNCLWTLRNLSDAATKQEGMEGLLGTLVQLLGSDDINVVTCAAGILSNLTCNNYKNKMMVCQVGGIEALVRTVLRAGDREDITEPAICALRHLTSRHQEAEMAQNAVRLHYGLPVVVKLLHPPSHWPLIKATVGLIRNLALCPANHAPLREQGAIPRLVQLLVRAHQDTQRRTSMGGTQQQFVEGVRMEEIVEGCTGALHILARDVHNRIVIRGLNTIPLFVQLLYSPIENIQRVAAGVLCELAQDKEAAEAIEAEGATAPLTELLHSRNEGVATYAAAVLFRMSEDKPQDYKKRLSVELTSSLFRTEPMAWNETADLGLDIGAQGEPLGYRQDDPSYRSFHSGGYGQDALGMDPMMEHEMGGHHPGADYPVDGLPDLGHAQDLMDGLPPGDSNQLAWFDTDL

[6] = biological target: T6, B-cat-Halo (beta-catenin HaloTag NanoBRET construct expressed in HEK293 cells) (Homo sapiens (Human), UniProt P35222 1-781); experiment: cell-based or functional assay
T6 sequence: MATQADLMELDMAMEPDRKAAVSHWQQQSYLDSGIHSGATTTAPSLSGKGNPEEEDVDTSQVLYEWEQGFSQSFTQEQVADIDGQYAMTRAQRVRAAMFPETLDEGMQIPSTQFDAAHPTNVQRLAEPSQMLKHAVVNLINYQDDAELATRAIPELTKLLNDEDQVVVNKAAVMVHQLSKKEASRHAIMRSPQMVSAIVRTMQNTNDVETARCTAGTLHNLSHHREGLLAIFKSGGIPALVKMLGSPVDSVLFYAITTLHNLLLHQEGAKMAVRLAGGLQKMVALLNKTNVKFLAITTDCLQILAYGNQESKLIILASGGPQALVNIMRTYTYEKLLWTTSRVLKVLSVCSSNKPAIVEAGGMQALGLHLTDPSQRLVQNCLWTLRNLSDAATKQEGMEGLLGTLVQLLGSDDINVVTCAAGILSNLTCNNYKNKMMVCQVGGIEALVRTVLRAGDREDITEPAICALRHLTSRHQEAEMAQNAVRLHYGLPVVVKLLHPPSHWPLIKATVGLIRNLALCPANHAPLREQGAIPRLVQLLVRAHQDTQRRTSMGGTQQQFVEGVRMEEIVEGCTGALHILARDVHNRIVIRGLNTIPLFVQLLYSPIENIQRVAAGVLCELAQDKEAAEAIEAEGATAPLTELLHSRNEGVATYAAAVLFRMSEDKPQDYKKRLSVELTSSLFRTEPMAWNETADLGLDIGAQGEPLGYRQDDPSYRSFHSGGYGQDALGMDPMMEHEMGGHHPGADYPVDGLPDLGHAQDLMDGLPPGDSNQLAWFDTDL

[7] = biological target: B-cat-Halo (UniProt P35222 1-781); experiment: cell-based or functional assay

Question: Which EC50 [1] does the source give for Ac-[αAllylPro]DI[B5(23)]DEAAFQ[S8]F[Bta]Q-NH2 (staple 1-4, 4-11, Stapled (stitched) peptide) [I-407] here?
Answer: 30 nM

Question: And the “NanoBRET % inh @ 10 uM” value [2]?
Answer: 55.1%

Question: How did the “DLD1 4% Abs IC50” value [3] turn out when Ac-[αAllylPro]D[tBuAla][B5″]D[TfeGA]AAFN[PyrS2(3)][3Thi][Bta]Q-NH2 (staple 1-4, 4-11) [I-762] was run?
Answer: 7.9 µM

Question: And the “NanoBRET Abs IC50” value [4]?
Answer: 14 µM

Question: How did the “DLD1 4% Abs IC50” value [5] turn out when Ac-[αAllylPro]D[tBuAla][B5(4)]DDAAFT[PyrS2″][Phe(2-Cl)][Bta]-Alaol (staple 1-4, 4-11; also: C-terminal Alao1 group, meaning not given here) [I-1246] was run?
Answer: 16.2 µM

Question: What about the “NanoBRET Abs IC50” value [6] of the same binder?
Answer: 24.3 µM

Question: Ac-[αAllylPro]D[tBuAla][B5(5)]DDAAFN[S8][3Thi][Bta]Q-NH2 (staple 1-4, 4-11) [I-679] was tested. Which “NanoBRET % inh @ 10 uM” value [7] did it give?
Answer: 44.8%
